Assay [1] addresses T1, human TL1A-His protein (human, UniProt O95150 72-251).
T1 construct: also called human TL1A extracellular domain (TL1A-ECD) with 6×His tag
T1 sequence: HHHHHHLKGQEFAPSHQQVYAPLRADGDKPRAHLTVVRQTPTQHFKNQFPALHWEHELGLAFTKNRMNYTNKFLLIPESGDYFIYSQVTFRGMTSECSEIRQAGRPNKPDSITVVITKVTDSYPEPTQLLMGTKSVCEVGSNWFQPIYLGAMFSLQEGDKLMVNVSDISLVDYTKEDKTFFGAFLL
In words: SPR (Biacore 8K), antibody captured on Protein A chip, TL1A-his as analyte. (In general: SPR reads the build-up and loss of mass on a sensor chip optically.)

Assay [2] concerns the target T1, human TL1A-His protein. In words: ELISA.

In general, Kd refers to the equilibrium constant for the complex coming apart. High values mean weaker binding, low ones tighter binding. Usually koff stands for the rate constant with which the complex falls apart. Broadly, the kon is the second-order rate constant of association. Low values mean slower complex formation, high ones faster complex formation. Take positive control antibody PRA023: in the assay with human TL1A-His protein [1], the Kd is 0.537 nM, the koff turned out to be 0.000166 s⁻¹ and the kon was found to be 308000 M⁻¹ s⁻¹.

B1: humanized antibody 72851 (antibody, human IgG1, kappa, L234A L235A, V domains shown)
VH: QVQLVQSGAEVKKPGASVKVSCKASGYSFTGYTMNWVRQAPGQNLEWIGLINPYSGGTNYNQKFKGRATLTVDTSISTAYMELSRLRSDDTAVYYCASIYQRHDGIAYWGQGTLVTVSS
VL: EIVLTQSPDFQSVTPKEKVTITCSASSSVNYMHWYQQKPDQSPKLLIKDTSKLASGVPSRFSGSGSGTDFTLTINSLEAEDAATYYCQQWSSSPYTFGGGTKVEIKR
notes: Humanized from 728H4D9; human IgG1/kappa
In the assay with human TL1A-His protein [1], B1 gave a Kd of 0.212 nM, a koff of 0.000212 s⁻¹ and a kon of 1e+06 M⁻¹ s⁻¹.

B2: 311V25 (antibody, human IgG1, kappa, L234A L235A, V domains shown)
VH: EVQLVESGGGLVQPGGSLKLSCAASGFTFSNYWMNWVRQASGKGLEWVGGIRLKSNNYATQYAESVKGRFTISRDDSKNTAYLQMNSLKTEDTAVYYCTPLLLNGMDYWGQGTTVTVSS
VL: EIVLTQSPDFQSVTPKEKVTITCSASSSVSYMHWYQQKPDQSPKLWIYDTSNLASGVPSRFSGSGSGTDFTLTINSLEAEDAATYYCFQESGYPFTFGQGTKLEIKR
As to B2, the binding result in the assay with human TL1A-His protein [2] was “binds”.

B3: 311V34 (antibody, human IgG1, kappa, L234A L235A, V domains shown)
VH: EVQLVESGGGLVQPGGSLKLSCAASGFTFSNYWMNWVRQASGKGLEWVGGIRLKSNNYRTQYAESVKGRFTISRDDSKNTAYLQMNSLKTEDTAVYYCTPLLLNGMDYWGQGTTVTVSS
VL: EIVLTQSPDFQSVTPKEKVTITCSASSSVSYMHWYQQKPDQSPKLWIYDTSNLASGVPSRFSGSGSGTDFTLTINSLEAEDAATYYCFQESGYPFTFGQGTKLEIKR
As for B3, the binding result in the assay with human TL1A-His protein [2] was “binds”.

B4: 311V34-7 (antibody, human IgG1, kappa, L234A L235A, V domains shown)
VH: EVQLVESGGGLVQPGGSLKLSCAASGFTFSNYWMNWVRQASGKGLEWVGGIRLKSNNYRTQYAESVKGRFTISRDDSKNTAYLQMNSLKTEDTAVYYCTPLLLSGMDYWGQGTTVTVSS
VL: EIVLTQSPDFQSVTPKEKVTITCSASSSVSYMHWYQQKPDQSPKLWIYDTSNLASGVPSRFSGSGSGTDFTLTINSLEAEDAATYYCFQESGYPFTFGQGTKLEIKR
As for B4, the binding result with human TL1A-His protein [2] was “binds”.

B5: 311V31 (antibody, human IgG1, kappa, L234A L235A, V domains shown)
VH: EVQLVESGGGLVQPGGSLKLSCAASGFTFSNYWMNWVRQASGKGLEWVGGIRLKSNNYKTQYAESVKGRFTISRDDSKNTAYLQMNSLKTEDTAVYYCTPLLLNGMDYWGQGTTVTVSS
VL: EIVLTQSPDFQSVTPKEKVTITCSASSSVSYMHWYQQKPDQSPKLWIYDTSNLASGVPSRFSGSGSGTDFTLTINSLEAEDAATYYCFQESGYPFTFGQGTKLEIKR
With B5, the binding result with human TL1A-His protein [2] is “binds”.

B6: humanized antibody 31122 (antibody, human IgG1, kappa, L234A L235A, V domains shown)
VH: EVQLVESGGGLVQPGGSLKLSCAASGFTFSNYWMNWVRQASGKGLEWVGGIRLKSNNYTTQYAESVKGRFTISRDDSKNTAYLQMNSLKTEDTAVYYCTPLLLNGMDYWGQGTTVTVSS
VL: EIVLTQSPDFQSVTPKEKVTITCSASSSVSYMHWYQQKPDQSPKLWIYDTSNLASGVPSRFSGSGSGTDFTLTINSLEAEDAATYYCFQESGYPFTFGQGTKLEIKR
notes: Humanized from 311C9E10; human IgG1/kappa
In the assay with human TL1A-His protein [1], B6 gave a Kd of 0.394 nM, a dissociation rate constant (koff) of 0.000159 s⁻¹ and a kon of 405000 M⁻¹ s⁻¹.

B7: 311V31-7 (antibody, human IgG1, kappa, L234A L235A, V domains shown)
VH: EVQLVESGGGLVQPGGSLKLSCAASGFTFSNYWMNWVRQASGKGLEWVGGIRLKSNNYKTQYAESVKGRFTISRDDSKNTAYLQMNSLKTEDTAVYYCTPLLLSGMDYWGQGTTVTVSS
VL: EIVLTQSPDFQSVTPKEKVTITCSASSSVSYMHWYQQKPDQSPKLWIYDTSNLASGVPSRFSGSGSGTDFTLTINSLEAEDAATYYCFQESGYPFTFGQGTKLEIKR
Take B7: the binding result with human TL1A-His protein [2] was “binds”.

B8: 311V25-7 (antibody, human IgG1, kappa, L234A L235A, V domains shown)
VH: EVQLVESGGGLVQPGGSLKLSCAASGFTFSNYWMNWVRQASGKGLEWVGGIRLKSNNYATQYAESVKGRFTISRDDSKNTAYLQMNSLKTEDTAVYYCTPLLLSGMDYWGQGTTVTVSS
VL: EIVLTQSPDFQSVTPKEKVTITCSASSSVSYMHWYQQKPDQSPKLWIYDTSNLASGVPSRFSGSGSGTDFTLTINSLEAEDAATYYCFQESGYPFTFGQGTKLEIKR
Take B8: the binding result with human TL1A-His protein [2] is “binds”.

Values taken from patent publication EP4674870A1 (Sunshine Guojian Pharmaceutical (Shanghai) Co., Ltd., dated 2026).
